In patent publication US20100209424A1:

Tests used:
[1] = biological target: human FcRn (GFP-hFcRn construct lacking the endosomal targeting domain, expressed on the plasma membrane of human 293 cells) (human) (UniProt P55899); experiment: flow cytometry competition against hIgG-Alexa Fluor 647 (40 µg/ml) on 293 cells expressing GFP-hFcRn, pH 5.8
[2] = biological target: human FcRn (GFP-hFcRn construct lacking the endosomal targeting domain, expressed on the plasma membrane of human 293 cells) (human) (UniProt P55899); experiment: flow cytometry competition against hIgG-Alexa Fluor 647 on 293 cells expressing GFP-hFcRn, pH 5.8

Chain of UniProt P55899 (P55899 24-321): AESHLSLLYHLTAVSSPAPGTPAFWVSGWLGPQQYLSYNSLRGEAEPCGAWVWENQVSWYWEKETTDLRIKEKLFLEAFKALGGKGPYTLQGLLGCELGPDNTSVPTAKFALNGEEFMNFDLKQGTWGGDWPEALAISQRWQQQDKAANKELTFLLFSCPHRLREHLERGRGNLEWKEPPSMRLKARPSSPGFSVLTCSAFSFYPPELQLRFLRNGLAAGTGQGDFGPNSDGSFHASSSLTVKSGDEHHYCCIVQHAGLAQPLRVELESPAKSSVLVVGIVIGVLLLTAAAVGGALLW

Substance | IC50 [1] [µM] | fold decrease of IC50 against unconjugated hIgG [2] [fold]
human immunoglobulin G (hIgG), unconjugated (antibody) | 11.4 | –
biotinylated human immunoglobulin G (hIgG-biotin) (antibody) | 5.4 | 2
